In the Human Domainome abundance scans (Beltran et al. 2025):
± gives the uncertainty stated by the source.

B1: Heterogeneous nuclear ribonucleoprotein U-like protein 2, residues 1 to 40; numbered along this chain, Q1KMD3 (parent)
chain: MEVKRLKVTELRSELQRRGLDSRGLKVDLAQRLQEALDAE

Variants of: B1
Test: abundance fitness (aPCA) (normalised: wild type 0, dead -1); higher = more abundant; growth selection in yeast, the domain comes from the species named
Conditions: Homo sapiens

Row | Variant | abundance fitness
1 | G19T | -0.521 ± 0.07
2 | G19V | -0.789 ± 0.063
3 | G19Y | -1.04 ± 0.19
4 | L20A | -0.352 ± 0.059
5 | L20C | -0.265 ± 0.062
6 | L20D | -0.304 ± 0.067
7 | L20E | -0.383 ± 0.057
8 | L20F | -0.353 ± 0.089
9 | L20G | -0.51 ± 0.052
10 | L20H | -0.572 ± 0.13
11 | L20I | -0.151 ± 0.072
12 | L20M | -0.033 ± 0.076
13 | L20N | -0.77 ± 0.11
14 | L20P | -0.65 ± 0.07
15 | L20Q | -0.364 ± 0.082
16 | L20R | -0.558 ± 0.05
17 | L20S | -0.496 ± 0.061
18 | L20T | -0.563 ± 0.067
19 | L20V | -0.358 ± 0.054
20 | L20W | -0.624 ± 0.071
21 | L20Y | -0.462 ± 0.081
22 | D21A | -0.41 ± 0.064
23 | D21C | -0.068 ± 0.097
24 | D21F | -0.591 ± 0.22

Row | Variant | abundance fitness
25 | D21G | -0.572 ± 0.055
26 | D21H | -0.422 ± 0.12
27 | D21I | -0.871 ± 0.14
28 | D21K | -0.428 ± 0.13
29 | D21L | -0.557 ± 0.059
30 | D21M | -0.453 ± 0.069
31 | D21R | -0.645 ± 0.053
32 | D21T | -0.217 ± 0.099
33 | D21W | -0.74 ± 0.064
34 | D21Y | -0.204 ± 0.35
35 | S22A | 0.063 ± 0.054
36 | S22C | -0.08 ± 0.1
37 | S22E | -0.02 ± 0.056
38 | S22F | 0.176 ± 0.28
39 | S22G | -0.052 ± 0.053
40 | S22H | 0.08 ± 0.12
41 | S22K | -0.333 ± 0.079
42 | S22L | -0.153 ± 0.065
43 | S22M | -0.064 ± 0.1
44 | S22P | 0.12 ± 0.085
45 | S22Q | 0 ± 0.064
46 | S22R | -0.402 ± 0.055
47 | S22T | 0.142 ± 0.07
48 | S22V | 0.079 ± 0.059

Row | Variant | abundance fitness
49 | S22W | -0.011 ± 0.072
50 | R23A | 0.158 ± 0.057
51 | R23C | 0.062 ± 0.078
52 | R23D | 0.136 ± 0.067
53 | R23E | 0.166 ± 0.065
54 | R23F | -0.137 ± 0.079
55 | R23G | 0.091 ± 0.05
56 | R23H | 0.092 ± 0.16
57 | R23K | 0.082 ± 0.073
58 | R23L | -0.057 ± 0.056
59 | R23M | -0.232 ± 0.13
60 | R23N | 0.127 ± 0.07
61 | R23P | -0.6 ± 0.096
62 | R23Q | 0.114 ± 0.054
63 | R23S | 0.167 ± 0.077
64 | R23T | 0.225 ± 0.066
65 | R23V | -0.019 ± 0.058
66 | R23W | -0.185 ± 0.061
67 | R23Y | 0.041 ± 0.24
68 | G24A | -0.832 ± 0.077
69 | G24C | -0.773 ± 0.079
70 | G24K | -0.945 ± 0.12
71 | G24L | -0.984 ± 0.076
72 | G24M | -0.81 ± 0.082

Row | Variant | abundance fitness
73 | G24P | -0.578 ± 0.072
74 | G24Q | -0.612 ± 0.14
75 | G24R | -1.03 ± 0.051
76 | G24S | -0.703 ± 0.072
77 | G24T | -0.837 ± 0.074
78 | G24V | -0.855 ± 0.057
79 | G24W | -1.47 ± 0.08
80 | G24Y | -1.1 ± 0.17
81 | L25A | 0.189 ± 0.054
82 | L25C | 0.019 ± 0.067
83 | L25D | 0.151 ± 0.072
84 | L25E | 0.257 ± 0.059
85 | L25G | 0.095 ± 0.046
86 | L25H | 0.105 ± 0.088
87 | L25I | -0.095 ± 0.081
88 | L25M | -0.096 ± 0.084
89 | L25Q | 0.046 ± 0.06
90 | L25S | 0.118 ± 0.059
91 | L25T | 0.155 ± 0.081
92 | L25V | 0.066 ± 0.049
93 | L25W | -0.248 ± 0.068
94 | L25Y | -0.025 ± 0.11
95 | K26A | -0.066 ± 0.056
96 | K26D | -0.019 ± 0.09

Row | Variant | abundance fitness
97 | K26E | 0.107 ± 0.06
98 | K26F | -0.361 ± 0.088
99 | K26G | -0.178 ± 0.051
100 | K26I | -0.117 ± 0.089
101 | K26L | -0.179 ± 0.053
102 | K26M | -0.048 ± 0.072
103 | K26P | -0.002 ± 0.069
104 | K26Q | 0.008 ± 0.095
105 | K26R | -0.074 ± 0.051
106 | K26S | -0.189 ± 0.073
107 | K26T | -0.154 ± 0.082
108 | K26V | -0.149 ± 0.056
109 | K26W | -0.146 ± 0.058
110 | K26Y | -0.103 ± 0.15
111 | V27C | 0.09 ± 0.11
112 | V27D | 0.037 ± 0.074
113 | V27E | 0.038 ± 0.058
114 | V27G | -0.014 ± 0.05
115 | V27H | -0.009 ± 0.12
116 | V27I | -0.047 ± 0.071
117 | V27K | 0.087 ± 0.1
118 | V27L | -0.087 ± 0.065
119 | V27M | 0.002 ± 0.088
120 | V27N | 0.049 ± 0.13

Row | Variant | abundance fitness
121 | V27P | 0.142 ± 0.11
122 | V27Q | -0.246 ± 0.17
123 | V27R | 0.049 ± 0.051
124 | V27S | 0.086 ± 0.063
125 | V27T | -0.063 ± 0.078
126 | V27W | -0.339 ± 0.084
127 | V27Y | -0.413 ± 0.14
128 | D28A | -0.09 ± 0.052
129 | D28E | 0.086 ± 0.063
130 | D28F | -0.896 ± 0.12
131 | D28G | -0.513 ± 0.061
132 | D28H | -0.19 ± 0.085
133 | D28I | -0.326 ± 0.17
134 | D28K | -0.129 ± 0.073
135 | D28L | -0.497 ± 0.055
136 | D28M | -0.382 ± 0.13
137 | D28N | -0.248 ± 0.1
138 | D28P | -0.681 ± 0.1
139 | D28Q | -0.139 ± 0.066
140 | D28R | -0.342 ± 0.058
141 | D28S | -0.407 ± 0.065
142 | D28V | -0.119 ± 0.057
143 | D28W | -1.35 ± 0.11
144 | D28Y | -0.715 ± 0.17

Row | Variant | abundance fitness
145 | L29A | -0.212 ± 0.05
146 | L29C | -0.137 ± 0.063
147 | L29D | -0.104 ± 0.074
148 | L29E | -0.174 ± 0.068
149 | L29F | -0.603 ± 0.16
150 | L29G | -0.188 ± 0.051
151 | L29H | -0.346 ± 0.098
152 | L29I | -0.189 ± 0.075
153 | L29K | -0.31 ± 0.09
154 | L29N | -0.352 ± 0.1
155 | L29P | -0.299 ± 0.067
156 | L29Q | -0.285 ± 0.07
157 | L29R | -0.356 ± 0.063
158 | L29S | -0.201 ± 0.073
159 | L29T | -0.083 ± 0.17
160 | L29W | -0.853 ± 0.069
161 | L29Y | -0.486 ± 0.098
162 | A30C | -0.006 ± 0.071
163 | A30D | -0.217 ± 0.083
164 | A30F | -0.217 ± 0.13
165 | A30G | -0.361 ± 0.063
166 | A30L | -0.21 ± 0.074
167 | A30N | -0.422 ± 0.4
